{"source": "patent US20020164657A1", "about": "(published 2002)", "binders": {"B1": {"name": "N-terminal tau (M1-238S) (other)", "chain": "MAEPRQEFEVMEDHAGTYGLGDRKDQGGYTMHQDQEGDTDAGLKAEEAGIGDTPSLEDEAAGHVTQARMVSKSKDGTGSDDKKAKGADGKTKIATPRGAAPPGQKGQANATRIPAKTPPAPKTPPSSGEPPKSGDRSGYSSPGSPGTPGSRSRTPSLPTPPTREPKKVAVVRTPPKSPSS", "notes": "also called N-terminal tau domain (IM-238S)"}}, "biological_target": "T1, Aβ 1-42", "T1 construct": "Obtained from Bachem, dissolved in 50% DMSO and used as the aggregated (insoluble) form; also called aggregated Aβ 1-42; beta-amyloid peptide 1-42", "T1 sequence (peptide, as listed by the source)": "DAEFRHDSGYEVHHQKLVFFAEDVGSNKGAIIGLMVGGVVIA", "test": "co-sedimentation with Aβ 1-42, SDS-PAGE densitometry", "description": "Samples were centrifuged at 12,000×g in a micro centrifuge for 5 min. The supernatants were removed, and the pellets washed once with 40 mM Tris, pH 7.5, 10 mM MgCI₂, 1 mM DTT and centrifuged again. The pellets were resuspended in 100 μl buffer, electrophoresed on 12% SDS-PAGE next to the corresponding supernatant, and stained with Coomassie Blue R-250.", "data": [{"binder": "B1", "values": [{"measurement": "binding result", "result": "no binding"}]}]}
